# Assay results taken from the supplement of paper PMC9732359.
# ± gives the uncertainty stated by the source.
# Test: protein stability index of a GFP-peptide fusion (yeast GPS) (PSI 1-4); higher = more stable; sorted into four equal gates, so the index is relative within each strain
# Procedure, shortened: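 Mid-log yeast cultures in leucine-free medium, carrying a pooled plasmid library, were sorted into four equal gates by their GFP/Cherry fluorescence ratio. Each plasmid expressed Cherry along with GFP fused upstream of a tiled 17-residue yeast protein peptide. Plasmids recovered from each gate were PCR-amplified and Illumina-sequenced, with reads assigned to strains by barcodes. The protein stability index was obtained by summing each gate's read frequency weighted by its gate number.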
Sequence,protein stability index (doa10∆),protein stability index (pdr5∆),protein stability index (san1∆),protein stability index (ubr1∆)
NLLKVSVDICNNSKSRY [ECM29],2.04 ± 0.07,2.2 ± 0.066,2.9 ± 0.052,2.02 ± 0.054
MTTEDPDSNHLSSETGI [SRB4],3.15 ± 0.12,2.85 ± 0.2,3.37 ± 0.076,3.04 ± 0.081
DLESSSPELKADLRPLQ [RPS7B],2.89 ± 0.29,2.97 ± 0.21,–,3.27 ± 0.17
LLGNCYSLRLINKEIFH [SRB8],1.79 ± 0.069,1.46 ± 0.094,1.46 ± 0.17,1.36 ± 0.073
KIIELMNKIFTIFKSGE [YML103C/NUP188],3.01 ± 0.08,2.22 ± 0.083,1.79 ± 0.11,2.8 ± 0.12
SHERFFLSQGLHVVITL [CSN12],2.89 ± 0.099,2.94 ± 0.094,2.74 ± 0.18,2.87 ± 0.12
RTAPKSDNVYLKLLVKL [RPL18A],2.6 ± 0.092,2.8 ± 0.093,2.7 ± 0.089,3.03 ± 0.068
GKTLAFVIPILIKMSRS [PRP28],1.38 ± 0.071,1.62 ± 0.079,1.22 ± 0.19,–
GALVDRTQPWSIMPDLY [RPS0A],2.71 ± 0.09,2.82 ± 0.091,2.87 ± 0.062,3.11 ± 0.032
QESFVPNSERSGTPTLK [YOR098C/NUP1],3.03 ± 0.16,2.25 ± 0.15,–,1.79 ± 0.19
EIARQMRDKSFGRTLAS [RPL12A],3.25 ± 0.1,3.07 ± 0.12,2.88 ± 0.13,2.72 ± 0.18
WKPNPSYDVENVNSRNQ [SRB5],2.96 ± 0.084,2.95 ± 0.14,3 ± 0.11,3.3 ± 0.085
IYEEVRAVLKSFLESVI [HHF1],3 ± 0.21,3.13 ± 0.15,2.26 ± 0.15,2.66 ± 0.097
LRLLEVTDDDRLWLKKV [POP8],1.36 ± 0.061,1.68 ± 0.072,1.35 ± 0.095,1.61 ± 0.071
MSLKKCQEEVSTIEKDM [SMC2],2.48 ± 0.1,2.73 ± 0.12,2.75 ± 0.14,2.79 ± 0.2
IRTRRAAELLDKRIVIS [DIS3],1.5 ± 0.11,1.81 ± 0.1,1.51 ± 0.17,1.84 ± 0.1
SEIKQQINKAQILENYN [YJL039C/NUP192],2.94 ± 0.089,3.17 ± 0.069,2.73 ± 0.091,3.11 ± 0.057
RSPTRRLELLQLSPVKN [SMC4],1.38 ± 0.26,1.64 ± 0.19,–,1.68 ± 0.13
KGKTPKNAAESSYMGKH [PRP28],3.18 ± 0.12,3.22 ± 0.14,2.86 ± 0.16,3.33 ± 0.085

Sequence,protein stability index (doa10∆),protein stability index (pdr5∆),protein stability index (san1∆),protein stability index (ubr1∆)
WYQFSNSKDHKKITLQL [SIN4],3.35 ± 0.13,3.47 ± 0.12,2.47 ± 0.22,2.86 ± 0.068
SLHSNSFSLTVSKEQFL [YJL039C/NUP192],1.81 ± 0.065,1.8 ± 0.072,1.84 ± 0.12,1.43 ± 0.078
LMRTFLYTLAQETEGTN [SIR3],2.63 ± 0.12,2.63 ± 0.098,–,2.35 ± 0.11
NVEKPSSKPAFNLISNA [YLR335W/NUP2],3.1 ± 0.056,3.15 ± 0.066,3.14 ± 0.048,3.16 ± 0.044
TKLIGVLILLHAERDLA [SRP68],1.28 ± 0.078,2.26 ± 0.17,2.48 ± 0.088,2.78 ± 0.098
SGDNHTQQSHEQQPEQP [RPT4],2.96 ± 0.052,3.15 ± 0.064,3.03 ± 0.06,2.95 ± 0.049
FVSRPDRTMLAPMDFAI [FAS1],2.68 ± 0.12,2.82 ± 0.11,2.63 ± 0.11,2.68 ± 0.11
MATPSFGNSSPQLTFTH [YML103C/NUP188],2.75 ± 0.12,2.1 ± 0.068,2.83 ± 0.067,2.73 ± 0.062
GKEHIVAALVSLTEKFS [ECM29],1.73 ± 0.047,1.95 ± 0.055,1.58 ± 0.084,1.63 ± 0.042
TTTVLKRYANHTQDIIG [RET1],2.04 ± 0.083,2.75 ± 0.093,3.02 ± 0.051,2.9 ± 0.055
ANDEEAYIKLLDQTKDT [SNF2],2.98 ± 0.088,3.21 ± 0.072,3.4 ± 0.069,3 ± 0.1
EELKDSEINEILARNDE [SNF2],3.2 ± 0.18,3.55 ± 0.12,2.66 ± 0.13,3.32 ± 0.089
SCTFWSDKESNAYGFIE [YJL039C/NUP192],2.9 ± 0.079,2.65 ± 0.083,2.83 ± 0.07,3.26 ± 0.09
ELSDKEIYTVEDRPPEY [ISW2],3.34 ± 0.13,3.45 ± 0.15,3.33 ± 0.17,3.42 ± 0.12
RKLGLLGDKEDEKQSAK [MTW1],3.37 ± 0.083,3.41 ± 0.09,2.94 ± 0.1,3.28 ± 0.067
YSTLKELLEYSDDIAEN [YCG1],2.81 ± 0.048,2.84 ± 0.053,2.74 ± 0.053,2.59 ± 0.04
STVASALDTNGTSATTE [SIR4],2.2 ± 0.075,2.15 ± 0.065,2.91 ± 0.064,1.88 ± 0.045
RTPHEIQEANSVDMSAL [RIP1],–,3.46 ± 0.21,–,3.24 ± 0.076
HFAWLPTHIWNAKRSHM [POP1],1.99 ± 0.033,1.67 ± 0.035,1.45 ± 0.059,1.5 ± 0.026
